For 71 molecules, Binding affinity (RU) results are on record in patent US20250011363A1, “OPTIMIZED SHORTENED PEPTIDE THAT BINDS TO ACETYLCHOLINE RECEPTOR, AND USE THEREOF” (SKINMED CO., LTD., priority 2021, published 2025).

Experiment [1] concerns the target acetylcholine receptor. Description: SPR, peptide at 10 uM on immobilized AchR. In general terms: Surface plasmon resonance follows binding to a sensor surface in real time, without labels.
The target of experiment [2] is acetylcholine receptor. Description: SPR, receptor immobilised on chip, peptide at 10 uM.

In turn, KKMFRK [6mer-2-1042] had a Binding affinity (RU) in the experiment with acetylcholine receptor [1] of 36 RU.
For KHDKKR [6mer-2-1020], the Binding affinity (RU) in the experiment with acetylcholine receptor [1] is 21 RU.
The molecule RCNDKR [6mer-2-1002] gave a Binding affinity (RU) in the experiment with acetylcholine receptor [1] of 42 RU.
Turning to KFWEKK [6mer-2-995], in the experiment with acetylcholine receptor [2], the Binding affinity (RU) is 38 RU.
Consider RHTNKK [6mer-2-1007], for which the Binding affinity (RU) with acetylcholine receptor [1] is 42 RU.
In the experiment with acetylcholine receptor [1], RAPFKK [6mer-2-1030] registered a Binding affinity (RU) of 28 RU.
Regarding RDTHKR [6mer-2-1004], the Binding affinity (RU) in the experiment with acetylcholine receptor [1] stood at 38 RU.
Still for that read-out and setting: then RATIKR [6mer-2-999], with 31 RU.
As for RKKMKR [6mer-2-990], in the experiment with acetylcholine receptor [2], the Binding affinity (RU) came to 41 RU.
The molecule RNTWKK [6mer-2-1019] returned a Binding affinity (RU) in the experiment with acetylcholine receptor [1] of 23 RU.
On the same count and under the same terms, then RIHNRK [6mer-2-1048], with 22 RU; and RAPVRR [6mer-2-1017], with 40 RU; and KCHDKK [6mer-2-1000], with 41 RU.
Consider RMHFRR [6mer-2-992], for which, in the experiment with acetylcholine receptor [2], the Binding affinity (RU) was 33 RU.
KTPVKK [6mer-2-1027] came in with a Binding affinity (RU) in the experiment with acetylcholine receptor [1] of 32 RU.
In the case of RCHPKK [6mer-2-987], in the experiment with acetylcholine receptor [2], the Binding affinity (RU) came out at 22 RU.
Molecule RYTPKR [6mer-2-1021] displayed a Binding affinity (RU) in the experiment with acetylcholine receptor [1] of 39 RU.
KPEHRR [6mer-2-1028] gave a Binding affinity (RU) in the experiment with acetylcholine receptor [1] of 41 RU.
Consider RHDVKK [6mer-2-993], for which the Binding affinity (RU) with acetylcholine receptor [2] was 29 RU.
For the molecule RATMRR [6mer-2-1006], the Binding affinity (RU) with acetylcholine receptor [1] worked out at 30 RU.
The same measure, in the same setting: in the case of RHDDKR [6mer-2-1047] it was 28 RU; in that of KENHRK [6mer-2-1026], 33 RU.
Same read-out and setting: then KINPRK [6mer-2-1009], with 34 RU.
For KEEFKK [6mer-2-1029], the Binding affinity (RU) in the experiment with acetylcholine receptor [1] turned out to be 40 RU.
Still for that read-out and setting: then RPPMRR [6mer-2-1014], with 34 RU.
As to RTWHRR [6mer-2-983], in the experiment with acetylcholine receptor [2], the Binding affinity (RU) was 37 RU.
On to KETVKR [6mer-2-1032], for which the Binding affinity (RU) with acetylcholine receptor [1] turned out to be 31 RU.
Still for that read-out and setting: in the case of KHWERK [6mer-2-1038] it was 33 RU; in that of RAWKKR [6mer-2-1008], 38 RU.
Consider RMHAKK [6mer-2-982], for which the Binding affinity (RU) in the experiment with acetylcholine receptor [2] amounted to 38 RU.
Molecule RFKARR [6mer-2-1005] returned a Binding affinity (RU) with acetylcholine receptor [1] of 23 RU.
The molecule KASAKK [6mer-2-1012] yielded a Binding affinity (RU) in the experiment with acetylcholine receptor [1] of 30 RU.
KNWARR [6mer-2-986] showed a Binding affinity (RU) in the experiment with acetylcholine receptor [2] of 27 RU.
Molecule KAKNKR [6mer-2-1036] came in with a Binding affinity (RU) with acetylcholine receptor [1] of 25 RU.
Turning to RNHFRK [6mer-2-1039], the Binding affinity (RU) in the experiment with acetylcholine receptor [1] was determined as 26 RU.
Still for that read-out and setting: then RDEMKR [6mer-2-1015], with 29 RU.
In the case of KDMWKK [6mer-2-984], the Binding affinity (RU) with acetylcholine receptor [2] worked out at 43 RU.
RANHKK [6mer-2-1010] had a Binding affinity (RU) in the experiment with acetylcholine receptor [1] of 36 RU.
As to KYAWRK [6mer-2-1040], the Binding affinity (RU) in the experiment with acetylcholine receptor [1] was 36 RU.
On the same count and under the same terms, then KAEFKR [6mer-2-1023], with 26 RU.
Same read-out and setting: then KMDEKK [6mer-2-1033], with 28 RU; and RDKGKK [6mer-2-1043], with 40 RU.
In turn, REMNKR [6mer-2-985] returned a Binding affinity (RU) with acetylcholine receptor [2] of 34 RU.
The same measure, in the same setting: then KMCEKK [6mer-2-988], with 41 RU.
As for RNEEKR [6mer-2-1016], in the experiment with acetylcholine receptor [1], the Binding affinity (RU) was 41 RU.
In the experiment with acetylcholine receptor [2], KEMWKK [6mer-2-998] had a Binding affinity (RU) of 43 RU.
RAWERK [6mer-2-1031]: the Binding affinity (RU) with acetylcholine receptor [1] is 33 RU.
Turning to RHAHRR [6mer-2-1045], in the experiment with acetylcholine receptor [1], the Binding affinity (RU) amounted to 41 RU.
Consider KISFKK [6mer-2-997], for which, in the experiment with acetylcholine receptor [2], the Binding affinity (RU) was determined as 30 RU.
Take KCNPRR [6mer-2-1022]: the Binding affinity (RU) with acetylcholine receptor [1] came to 22 RU.
Regarding KCHFRR [6mer-2-991], the Binding affinity (RU) in the experiment with acetylcholine receptor [2] came out at 30 RU.
Molecule RAEFRR [6mer-2-1011] gave a Binding affinity (RU) in the experiment with acetylcholine receptor [1] of 22 RU.
Take RCSHRR [6mer-2-1025]: in the experiment with acetylcholine receptor [1], the Binding affinity (RU) amounted to 39 RU.
KHTDKK [6mer-2-1044] came in with a Binding affinity (RU) with acetylcholine receptor [1] of 41 RU.
The molecule RHDARK [6mer-2-996] returned a Binding affinity (RU) in the experiment with acetylcholine receptor [2] of 40 RU.
Same read-out and setting: in the case of KAHNKR [6mer-2-989] it was 22 RU.
In turn, KHSWRR [6mer-2-1034] yielded a Binding affinity (RU) in the experiment with acetylcholine receptor [1] of 38 RU.
Same read-out and setting: then KPPPRK [6mer-2-1050], with 26 RU.
Take KYCIKK [6mer-2-994]: the Binding affinity (RU) with acetylcholine receptor [2] amounted to 41 RU.
As to RKKFKK [6mer-2-1001], in the experiment with acetylcholine receptor [1], the Binding affinity (RU) is 37 RU.
On the same count and under the same terms, then KMSPRR [6mer-2-1049], with 26 RU.
Same read-out and setting: then RPPVKK [6mer-2-1035], with 39 RU.
On the same count and under the same terms, then KPPDKR [6mer-2-1013], with 23 RU; and KPEWKR [6mer-2-1003], with 42 RU.
Regarding RFHNKR [6mer-2-1024], the Binding affinity (RU) with acetylcholine receptor [1] came to 37 RU.
In the experiment with acetylcholine receptor [1], RNSEKR [6mer-2-1046] registered a Binding affinity (RU) of 39 RU.
Molecule KAPARK [6mer-2-1052] came in with a Binding affinity (RU) with acetylcholine receptor [1] of 23 RU.
Same read-out and setting: then KIHWKK [6mer-2-1037], with 26 RU; and RACDKR [6mer-2-1041], with 22 RU.
Same read-out and setting: then RKHMRR [6mer-2-1051], with 24 RU; and RPTKKK [6mer-2-1018], with 24 RU.
